According to patent US20200339690A1:

Assays:
[1] = molecular target: Rhesus Monocytes / Rhesus Neutrophils (Macaca mulatta); assay: flow cytometry, rhesus whole blood, neutrophils
[2] = molecular target: human LILRA4 (human) (UniProt P59901); assay: flow cytometry, LILRA4 CHOs
[3] = molecular target: Rhesus Monocytes / Rhesus Neutrophils (Macaca mulatta); assay: flow cytometry, rhesus whole blood, monocytes
[4] = molecular target: Cyno Monocytes / Cyno Neutrophils (Macaca fascicularis); assay: flow cytometry, cyno whole blood, monocytes
[5] = molecular target: human LILRB2 expressed on cells (human) (UniProt Q8N423); assay: flow cytometry, human whole blood, monocytes
[6] = molecular target: Cyno Monocytes / Cyno Neutrophils (Macaca fascicularis); assay: flow cytometry, cyno whole blood, neutrophils
[7] = molecular target: human LILRB2 expressed on cells (human) (UniProt Q8N423); assay: flow cytometry, human whole blood, neutrophils
[8] = molecular target: human LILRA1 (human) (UniProt O75019); assay: flow cytometry, LILRA1 CHOs
Chain of human LILRA1 (human) (O75019 17-489 limits assumed): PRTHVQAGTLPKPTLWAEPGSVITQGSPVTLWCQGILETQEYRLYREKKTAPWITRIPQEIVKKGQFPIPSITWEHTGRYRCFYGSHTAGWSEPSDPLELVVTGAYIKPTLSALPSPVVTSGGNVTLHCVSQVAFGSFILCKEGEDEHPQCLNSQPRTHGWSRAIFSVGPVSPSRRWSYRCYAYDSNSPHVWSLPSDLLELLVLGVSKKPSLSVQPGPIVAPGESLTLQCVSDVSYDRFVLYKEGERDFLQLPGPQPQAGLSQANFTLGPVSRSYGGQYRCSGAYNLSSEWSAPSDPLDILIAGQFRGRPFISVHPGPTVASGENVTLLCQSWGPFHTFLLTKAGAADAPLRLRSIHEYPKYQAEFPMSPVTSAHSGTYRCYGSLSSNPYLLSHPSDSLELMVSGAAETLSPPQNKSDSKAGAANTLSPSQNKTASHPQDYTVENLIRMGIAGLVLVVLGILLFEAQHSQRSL

Chain of human LILRB2 expressed on cells (human) (Q8N423 other isoform, or with tags, fused parts or gaps limits assumed): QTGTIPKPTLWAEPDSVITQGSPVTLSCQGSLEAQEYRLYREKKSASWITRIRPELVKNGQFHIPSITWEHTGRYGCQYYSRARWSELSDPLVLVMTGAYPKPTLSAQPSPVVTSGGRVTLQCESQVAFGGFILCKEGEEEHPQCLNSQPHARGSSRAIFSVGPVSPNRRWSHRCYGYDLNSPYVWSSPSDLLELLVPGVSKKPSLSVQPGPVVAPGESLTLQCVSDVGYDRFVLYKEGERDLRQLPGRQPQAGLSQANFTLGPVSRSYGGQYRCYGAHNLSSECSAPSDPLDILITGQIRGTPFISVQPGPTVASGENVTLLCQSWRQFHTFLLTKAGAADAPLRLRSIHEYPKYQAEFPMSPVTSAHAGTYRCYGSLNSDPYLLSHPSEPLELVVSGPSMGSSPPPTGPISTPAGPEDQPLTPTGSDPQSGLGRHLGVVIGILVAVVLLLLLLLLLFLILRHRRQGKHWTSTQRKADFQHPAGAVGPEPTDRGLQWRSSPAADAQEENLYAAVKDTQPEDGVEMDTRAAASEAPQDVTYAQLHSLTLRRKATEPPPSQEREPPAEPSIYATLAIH
Chain of human LILRA4 (human) (P59901 other isoform, or with tags, fused parts or gaps limits assumed): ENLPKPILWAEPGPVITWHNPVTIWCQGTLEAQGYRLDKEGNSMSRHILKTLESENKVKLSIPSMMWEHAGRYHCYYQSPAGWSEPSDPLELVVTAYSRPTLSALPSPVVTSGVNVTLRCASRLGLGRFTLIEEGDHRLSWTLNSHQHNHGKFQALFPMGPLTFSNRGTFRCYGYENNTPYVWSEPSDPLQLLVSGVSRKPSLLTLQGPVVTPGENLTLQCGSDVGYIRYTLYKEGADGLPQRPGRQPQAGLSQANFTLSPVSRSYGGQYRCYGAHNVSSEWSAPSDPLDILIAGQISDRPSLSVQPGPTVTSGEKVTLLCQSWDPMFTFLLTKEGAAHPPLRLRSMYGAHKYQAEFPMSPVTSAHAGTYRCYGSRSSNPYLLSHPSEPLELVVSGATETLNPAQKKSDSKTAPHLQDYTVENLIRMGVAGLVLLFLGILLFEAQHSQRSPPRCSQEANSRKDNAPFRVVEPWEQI

isotype control mAb (antibody)
1: Rhesus Neutrophils binding (fold over iso) (fold over iso) [1] | binding (fold over iso) (fold over iso) [2] | Rhesus Monocytes binding (fold over iso) (fold over iso) [3] | Cyno Monocytes binding (fold over iso) (fold over iso) [4] | Human Monocytes binding (fold over iso) (fold over iso) [5] | Cyno Neutrophils binding (fold over iso) (fold over iso) [6] | Human Neutrophils binding (fold over iso) (fold over iso) [7] | binding (fold over iso) (fold over iso) [8]
